{"source": "paper PMC7923362", "binders": {"B1": {"name": "FRET substrate MCA-AVLQSGFR-Lys(Dnp)-Lys-NH2 (peptide)", "peptide": "{MCA}-AVLQSGFRK(Dnp)K-NH2"}}, "biological_target": "SARS-CoV-2 main protease (M^pro), tag-free, native N and C termini (SARS-CoV-2)", "note": "* marks the point of attachment. Dnp = O=[N+]([O-])c1ccc(*)c([N+](=O)[O-])c1"}
{"binder": "B1", "values": [{"measurement": "Michaelis constant (Km) of the FRET-based enzymatic assay; M^pro 100 nM, substrate at various concentrations, Lineweaver-Burk plot", "result": 1.41, "unit": "µM"}]}
